Experimental data from patent US7820790B2, “IL-6 binding proteins” (Amgen Mountain View Inc., priority 2005, dated 2010).

Columns and labels:
IL-6R = target: T1, IL-6R (Homo sapiens, UniProt P08887); settings: dose-dependent manner; Nishimoto et al; cited from earlier work
T1 sequence (P08887 20-468): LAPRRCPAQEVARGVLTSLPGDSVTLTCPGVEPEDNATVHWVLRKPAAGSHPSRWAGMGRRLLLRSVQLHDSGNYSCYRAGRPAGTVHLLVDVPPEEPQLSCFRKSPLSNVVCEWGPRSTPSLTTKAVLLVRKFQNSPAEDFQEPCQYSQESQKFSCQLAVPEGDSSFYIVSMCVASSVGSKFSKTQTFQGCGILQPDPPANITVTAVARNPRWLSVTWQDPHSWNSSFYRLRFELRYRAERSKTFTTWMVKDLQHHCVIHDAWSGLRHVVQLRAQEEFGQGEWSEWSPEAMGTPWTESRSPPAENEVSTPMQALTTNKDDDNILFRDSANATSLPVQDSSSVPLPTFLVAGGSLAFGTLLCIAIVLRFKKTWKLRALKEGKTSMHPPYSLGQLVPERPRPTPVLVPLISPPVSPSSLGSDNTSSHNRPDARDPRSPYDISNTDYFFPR

TF-1 cells = assay: Stimulation of TF-1 cell proliferation by rhIL-6 (control experiments); type: cell-based, human
Protocol: TF-1, a GM-CSF dependent human erythroleukemia cell line, was purchased from ATCC(CRL-2003). IL-6 is a potent stimulator of TF-1 cell proliferation. The use of TF-1 cells for determining efficacy of IL-6, IL-6R, and/or gp130 inhibitors is well-established in the art.
TF-1 cells were maintained in growth medium (RPMI 1640 supplemented with 50 uM 2-ME, antibiotic-antimycotic), 10% FBS and 5 ng/ml hGM-CSF (Leukine). Prior to assay, TF-1 cells were washed and cultured overnight in growth medium plus 1% FBS and Leukine. TF-1 cells were then washed three times with growth medium plus 1% FBS, without Leukine prior to the assay.
TF-1 cells (1×10^4/well) were cultured in the presence or absence of the anti-IL-6 inhibitors-hIL-6 mixture in a 96-well flat bottom plate (Becton Dickinson) in a final volume of 200 ul/well for 40 hr in a humidified incubator at 37° C., 5% CO2. Cells were pulse-labeled with 1 uCi/well of [^3H]-Thymidine (Amersham Biosciences) during the final 16 hr of culture. Plates were harvested with a semiautomatic cell harvester (Tomtec, Inc.) and [^3H]-Thymidine incorporation was measured using a Microbeta-counter (Wallac-Perkin Elmer). Results are expressed as average cpm from triplicate wells.
Control experiments determined 0.2 ng/mL as the EC50 of rhIL-6 for stimulation of TF-1 cell proliferation.

[1] = tested on: Human heparinized-whole blood; assay: IL-6 stimulation of IgE in human whole blood; type: cell-based; settings: 50 ng/ml IL-6, 6.5 hr; compared to unstimulated controls or anti-IL-6 mAb controls
Protocol: Human heparinized-whole blood was obtained from six normal individuals from Stanford University Blood Bank. The avimer used in these experiments was generated as described in the above examples.
Briefly, 500 ul of heparinized human blood from several donors was cultured in 12×75 mm tubes or individual wells of a 24 well plate in the presence of 50 ng/ml of human IL-6; exemplary IL-6/IgG binding tetramers, a negative control avimer, 0.01-600 nM; anti-IL-6 monoclonal antibody (Clone 6708-111, R&D Systems) or mouse IgG1 isotype control antibody (eBioscience), 3, 10 or 30 ug/ml, or no inhibitors. Inhibitors or controls were diluted in RPMI1640+10% human AB serum before addition to the cultures. Final volume was 1 ml per sample.
Samples were incubated for 6.5 hr at 37° C. with 5% CO2. Samples were removed from incubator and centrifuged at 1500 rpm for 10 minutes at room temperature. Plasma samples were divided in two portions and one set was shipped to Rules Based Medicine for determination of the concentrations of IL-6- and avimer-regulated analytes. The second set of plasma samples was stored at −80° C.

| Substance | HDL increase (IL-6R) | LDL increase (IL-6R) | EC50 for stimulation of TF-1 cell proliferation (TF-1 cells) | increase of IgE concentration in supernatants [1] |
| --- | --- | --- | --- | --- |
| MRA: humanized anti-IL-6R antibody (MRA) | ~26% | 12-23% |  |  |
| rhIL-6: recombinant human IL-6 (R&D Systems) |  |  | 0.2 ng/mL | 2-3 fold |
